These results are taken from patent publication US20250223606.

In data set [1] the test system is TALED psaA Left (TALE array-split DddAtox/TadA-derived AD) (synthetic construct). Kind of data set: cell_activity. Particulars: pair with P4; A6 14.66 and 12.27, A5 10.67 and 7.68; lettuce protoplasts 7 days after mRNA; callus A5 8.4 and 7.5, A6 12.2 and 10.0.
The test system of data set [2] is TALED psaA Right (TALE array-split DddAtox/TadA-derived AD) (synthetic construct). Kind of data set: cell_activity. The note with it: pair with P3; A6 14.66 and 12.27, A5 10.67 and 7.68; lettuce protoplasts 7 days after mRNA.

In the case of “lettuce chloroplast psaA start codon, left half-site”, in data set [1], the activity is 14.7 % editing.
For “lettuce chloroplast psaA start codon, right half-site”, in data set [2], the activity is 14.7 % editing.
